This note sets out measurements from patent US20260028421A1 (JIANGSU HENGRUI PHARMACEUTICALS, published 2026).

What is called EC50 (read off the curve) is the concentration at which the effect is half-maximal. As a reminder, the EC50 is the concentration that produces a half-maximal response. Higher therefore signals weaker potency.

Assay [1] has as its target T1, Human GUCY2C protein on cells (HCT116/hGUCY2C, HT-55, T84, LS1034, LS174T) (human, UniProt P25092 24-1073).
T1 construct: also called GUCY2C on the cell surface
The assay is described as follows: flow cytometry on HCT116/hGUCY2C cells, R-PE goat anti-human IgG secondary antibody. A general note: A flow cytometer gives signals particle by particle.
Method: Experiment 1: 1E5 cells resuspended in 1% BSA were added to the reaction wells, and the supernatant was removed after centrifugation. Diluted antibody of the corresponding concentration was added, and the mixture was incubated at room temperature for 30 min and then washed twice with 1% BSA. […] After the plate was washed twice with 10% BSA, fluorescence signals were read using a flow cytometer.

Another assay deals with T2, hGUCY2C ECD-His (human, UniProt P25092 24-430).
T2 construct: also called human GUCY2C protein
Nature of the assay: ELISA, antigen on streptavidin plate. The procedure:
In this test example, the binding activity of the GUCY2C-CD3 bispecific antibodies for human GUCY2C was detected by ELISA. The specific procedures are as follows:
The plate was coated by adding 100 ng of streptavidin (ACRO #STN-N5116) to the reaction wells and incubated overnight at 4° C. After the blocking with 1% BSA (PBS), 100 ng of hGUCY2C ECD-His was added, and the mixture was incubated at 37° C. for 1 h. After plate washing, the gradiently diluted antibody was added, and the mixture was incubated at 37° C. for 1 h. […] After plate washing, a substrate solution was added, and a stop solution was then added after sufficient color development to stop the reaction. The signal values at […] were read using a microplate reader.

B1: 1608-BsAb (bispecific antibody)
chain 1: DIQLTQSPSSLSASVGDRVTITCRASESVDYYGSSLLQWYQQKPGKAPKLLIYAASKLASGVPSRFSGSGSGTDFTLTISSLQPEDFATYYCQQTRKAYTFGQGTKLEIKGGGSGGGGEVQLVESGGGLVQPGGSLRLSCAASGFTFSDYYMTWVRQAPGKGLEWVAFIRNQARGYTSDHNPSVKGRFTISRDNAKNSLYLQMNSLRAEDTAVYYCARDRPSYYVLDYWGQGTTVTVSSGCPPCPAPEAAGAPSVFLFPPKPKDTLMISRTPEVTCVVVDVSHEDPEVKFNWYVDGVEVHNAKTKPREEQYNSTYRVVSVLTVLHQDWLNGKEYKCKVSNKALPAPIEKTISKAKGQPREPQVCTLPPSREEMTKNQVSLWCLVKGFYPSDIAVEWESNGQPENNYKTTPPVLDSDGSFFLYSKLTVDKSRWQQGNVFSCSVMHEALHNHYTQKSLSLSPG
chain 2: DIQMTQSPSSLSASVGDRVTITCTSSQSLFNVRSQKNYLAWYQQKPGKAPKLLIYWASTRESGVPSRFSGSGSGTDFTLTISSLQPEDFATYYCKQSYDLFTFGGGTKVEIKGGGGSGGGGEVQLVESGGGLVQPGGSLRLSCAASGFTFSSYWMHWVRQAPGKGLEWIGEIKPSNELTNVHEKFKDRFTISVDKAKNSAYLQMNSLRAEDTAVYYCTRTITTTEGYWFFDVWGQGTLVTVSSGCPPCPAPEAAGAPSVFLFPPKPKDTLMISRTPEVTCVVVDVSHEDPEVKFNWYVDGVEVHNAKTKPREEQYNSTYRVVSVLTVLHQDWLNGKEYKCKVSNKALPAPIEKTISKAKGQPREPQVYTLPPCREEMTKNQVSLSCAVKGFYPSDIAVEWESNGQPENNYKTTPPVLDSDGSFFLVSKLTVDKSRWQQGNVFSCSVMHEALHNHYTQKSLSLSPG
B1: the “EC50 (read off the curve)” value in assay [1] was about 1 nM. Moreover, the EC50 with hGUCY2C ECD-His came out at 1.23 nM.
